# Data reported in US20120034160A1 (AbbVie / Abbott, published 2012).
# Where a chain is given by its changes, count along the chain named.
# T1: Recombinant Human IL-17 (human, UniProt Q16552 20-155, limits assumed)
# T1 sequence (looked up): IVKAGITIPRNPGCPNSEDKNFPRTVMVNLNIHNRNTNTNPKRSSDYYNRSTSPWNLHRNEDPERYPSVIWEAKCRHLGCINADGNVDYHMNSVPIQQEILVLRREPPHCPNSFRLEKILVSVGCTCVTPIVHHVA
# B1: DVD1595 (bispecific antibody, human IgG1, kappa)
# heavy: not shown
# light: DTVVTQSPAFLSVTPGEKVTITCITSTDIDVDMNWYQQKPDQPPKLLISQGNTLRPGVPSRFSSSGSGTDFTFTISSLEAEDAATYYCLQSDNLPLTFGQGTKLEIKRTVAAPSVFIFPPDIQMTQSPSSLSASVGDRVTITCRASSGIISYIDWFQQKPGKAPKRLIYATFDLASGVPSRFSGSGSGTDYTLTISSLQPEDFATYYCRQVGSYPETFGQGTKLEIKRTVAAPSVFIFPPSDEQLKSGTASVVCLLNNFYPREAKVQWKVDNALQSGNSQESVTEQDSKDSTYSLSSTLTLSKADYEKHKVYACEVTHQGLSSPVTKSFNRGEC
# B2: DVD1590 (bispecific antibody, human IgG1, kappa)
# heavy: not shown
# light: DIQMTQSPSSLSASVGDRVTITCRASSGIISYIDWFQQKPGKAPKRLIYATFDLASGVPSRFSGSGSGTDYTLTISSLQPEDFATYYCRQVGSYPETFGQGTKLEIKRTVAAPSVFIFPPDIQMTQSPSSLSASVGDRVTITCRASGNIHNYLTWYQQTPGKAPKLLIYNAKTLADGVPSRFSGSGSGTDYTFTISSLQPEDIATYYCQHFWSIPYTFGQGTKLQITRTVAAPSVFIFPPSDEQLKSGTASVVCLLNNFYPREAKVQWKVDNALQSGNSQESVTEQDSKDSTYSLSSTLTLSKADYEKHKVYACEVTHQGLSSPVTKSFNRGEC
# B3: DVD1592 (bispecific antibody, human IgG1, kappa)
# heavy: not shown
# light: B2 light
# B4: DVD1589 (bispecific antibody, human IgG1, kappa)
# heavy: not shown
# light: DIQMTQSPSSLSASVGDRVTITCRASGNIHNYLTWYQQTPGKAPKLLIYNAKTLADGVPSRFSGSGSGTDYTFTISSLQPEDIATYYCQHFWSIPYTFGQGTKLQITRTVAAPSVFIFPPDIQMTQSPSSLSASVGDRVTITCRASSGIISYIDWFQQKPGKAPKRLIYATFDLASGVPSRFSGSGSGTDYTLTISSLQPEDFATYYCRQVGSYPETFGQGTKLEIKRTVAAPSVFIFPPSDEQLKSGTASVVCLLNNFYPREAKVQWKVDNALQSGNSQESVTEQDSKDSTYSLSSTLTLSKADYEKHKVYACEVTHQGLSSPVTKSFNRGEC
# B5: DVD1591 (bispecific antibody, human IgG1, kappa)
# heavy: not shown
# light: B4 light
# B6: DVD1596 (bispecific antibody, human IgG1, kappa)
# heavy: not shown
# light: DIQMTQSPSSLSASVGDRVTITCRASSGIISYIDWFQQKPGKAPKRLIYATFDLASGVPSRFSGSGSGTDYTLTISSLQPEDFATYYCRQVGSYPETFGQGTKLEIKRTVAAPSVFIFPPDTVVTQSPAFLSVTPGEKVTITCITSTDIDVDMNWYQQKPDQPPKLLISQGNTLRPGVPSRFSSSGSGTDFTFTISSLEAEDAATYYCLQSDNLPLTFGQGTKLEIKRTVAAPSVFIFPPSDEQLKSGTASVVCLLNNFYPREAKVQWKVDNALQSGNSQESVTEQDSKDSTYSLSSTLTLSKADYEKHKVYACEVTHQGLSSPVTKSFNRGEC
# B7: DVD1594 (bispecific antibody, human IgG1, kappa)
# heavy: not shown
# light: DIQMTQSPSSLSASVGDRVTITCRASSGIISYIDWFQQKPGKAPKRLIYATFDLASGVPSRFSGSGSGTDYTLTISSLQPEDFATYYCRQVGSYPETFGQGTKLEIKRTVAAPSVFIFPPDTQVTQSPSSLSASVGDRVTITCITSTDIDVDMNWYQQKPGKPPKLLISQGNTLRPGVPSRFSSSGSGTDFTFTISSLQPEDFATYYCLQSDNLPLTFGQGTKLEIKRTVAAPSVFIFPPSDEQLKSGTASVVCLLNNFYPREAKVQWKVDNALQSGNSQESVTEQDSKDSTYSLSSTLTLSKADYEKHKVYACEVTHQGLSSPVTKSFNRGEC
# B8: DVD1598 (bispecific antibody, human IgG1, kappa)
# heavy: not shown
# light: B7 light with D121E, Q123T
# B9: DVD1593 (bispecific antibody, human IgG1, kappa)
# heavy: not shown
# light: DTQVTQSPSSLSASVGDRVTITCITSTDIDVDMNWYQQKPGKPPKLLISQGNTLRPGVPSRFSSSGSGTDFTFTISSLQPEDFATYYCLQSDNLPLTFGQGTKLEIKRTVAAPSVFIFPPDIQMTQSPSSLSASVGDRVTITCRASSGIISYIDWFQQKPGKAPKRLIYATFDLASGVPSRFSGSGSGTDYTLTISSLQPEDFATYYCRQVGSYPETFGQGTKLEIKRTVAAPSVFIFPPSDEQLKSGTASVVCLLNNFYPREAKVQWKVDNALQSGNSQESVTEQDSKDSTYSLSSTLTLSKADYEKHKVYACEVTHQGLSSPVTKSFNRGEC
# B10: DVD1597 (bispecific antibody, human IgG1, kappa)
# heavy: not shown
# light: B9 light with D1E, Q3T
# B11: DVD1599 (bispecific antibody, human IgG1, kappa)
# heavy: not shown
# light: DIQMTQSPSSLSASVGDRVTITCRASGNIHNYLTWYQQTPGKAPKLLIYNAKTLADGVPSRFSGSGSGTDYTFTISSLQPEDIATYYCQHFWSIPYTFGQGTKLQITRTVAAPSVFIFPPEIVLTQSPDFQSVTPKEKVTITCRASQDIGSELHWYQQKPDQPPKLLIKYASHSTSGVPSRFSGSGSGTDFTLTINGLEAEDAGTYYCHQTDSLPYTFGPGTKVDIKRTVAAPSVFIFPPSDEQLKSGTASVVCLLNNFYPREAKVQWKVDNALQSGNSQESVTEQDSKDSTYSLSSTLTLSKADYEKHKVYACEVTHQGLSSPVTKSFNRGEC
# B12: DVD1601 (bispecific antibody, human IgG1, kappa)
# heavy: not shown
# light: B11 light
# B13: DVD1600 (bispecific antibody, human IgG1, kappa)
# heavy: not shown
# light: EIVLTQSPDFQSVTPKEKVTITCRASQDIGSELHWYQQKPDQPPKLLIKYASHSTSGVPSRFSGSGSGTDFTLTINGLEAEDAGTYYCHQTDSLPYTFGPGTKVDIKRTVAAPSVFIFPPDIQMTQSPSSLSASVGDRVTITCRASGNIHNYLTWYQQTPGKAPKLLIYNAKTLADGVPSRFSGSGSGTDYTFTISSLQPEDIATYYCQHFWSIPYTFGQGTKLQITRTVAAPSVFIFPPSDEQLKSGTASVVCLLNNFYPREAKVQWKVDNALQSGNSQESVTEQDSKDSTYSLSSTLTLSKADYEKHKVYACEVTHQGLSSPVTKSFNRGEC
# B14: DVD1602 (bispecific antibody, human IgG1, kappa)
# heavy: not shown
# light: B13 light
# Molecular target: Recombinant Human IL-1β (human, UniProt P01584 117-269)
# Assay: cell-based or functional assay
N-Terminal VD IL-1β Neutralization Assay EC50 [pM],C-Terminal VD IL-1β Neutralization Assay EC50 [nM],Binder
204,,B1
,1.6,B2
,0.109,B3
6.8,,B4
2.3,,B5
,3.44,B6
,9.1,B7
,11.9,B8
184,,B9
326,,B10
4.8,,B11
3.6,,B12
,0.794,B13
,0.133,B14

# Molecular target: T1, Recombinant Human IL-17
# Assay: cell-based or functional assay
C-terminal VD IL-17 Neutralization Assay EC50 [pM],N-terminal VD IL-17 Neutralization Assay EC50 [pM],Binder
1.9,,B1
,1.6,B2
,11.7,B3
1.1,,B4
39.3,,B5
,0.7,B6
,2.5,B7
,5.3,B8
1,,B9
0.8,,B10
50.4,,B11
26.4,,B12
,5.5,B13
,3.3,B14
